These results are taken from PMC7948500, “Comparative interactomes of HSF1 in stress and disease reveal a role for CTCF in HSF1-mediated gene regulation” (The Journal of Biological Chemistry, 2020).

The target of this assay is T1, His6-tagged CTCF (human, UniProt P49711 1-727).
T1 construct: CTCF, human, codon-optimized for bacterial expression, in pET-15b; printed both as CTCF-His and His-CTCF; pET-15b usually adds an N-terminal His tag; also called His-CTCF; CTCF-His; source: E. coli BL21 (DE3), purified (Ni-NTA agarose)
T1 sequence (looked up): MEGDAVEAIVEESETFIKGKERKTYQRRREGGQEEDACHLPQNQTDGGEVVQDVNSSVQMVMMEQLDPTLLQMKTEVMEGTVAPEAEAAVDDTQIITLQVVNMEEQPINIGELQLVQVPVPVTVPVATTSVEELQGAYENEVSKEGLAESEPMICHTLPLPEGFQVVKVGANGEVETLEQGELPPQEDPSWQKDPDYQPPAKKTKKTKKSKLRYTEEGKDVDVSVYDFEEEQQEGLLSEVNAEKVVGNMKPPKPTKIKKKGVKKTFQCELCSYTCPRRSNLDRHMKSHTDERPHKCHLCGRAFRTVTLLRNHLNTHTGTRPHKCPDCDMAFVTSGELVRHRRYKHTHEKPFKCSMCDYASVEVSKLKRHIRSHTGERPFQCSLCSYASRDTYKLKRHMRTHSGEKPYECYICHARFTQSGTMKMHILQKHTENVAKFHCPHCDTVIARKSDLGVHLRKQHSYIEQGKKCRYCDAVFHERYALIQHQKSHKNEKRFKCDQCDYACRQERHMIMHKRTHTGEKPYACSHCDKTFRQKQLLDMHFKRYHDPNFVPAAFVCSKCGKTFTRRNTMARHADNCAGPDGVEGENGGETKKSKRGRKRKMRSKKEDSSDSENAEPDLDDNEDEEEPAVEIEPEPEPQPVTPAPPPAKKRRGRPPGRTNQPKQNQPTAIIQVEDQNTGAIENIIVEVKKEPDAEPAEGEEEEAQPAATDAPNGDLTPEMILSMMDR
Briefly: pull-down; in vitro STREP pull-down: 5 nM purified His-CTCF alone or with STREP-HSF1 in 1 ml Buffer NP (50 mM NaH2PO4, 300 mM NaCl, pH 8.0), 1 h at 4 °C, MagStrep type 3 XT resin, five washes, eluted with 25 mM desthiobiotin; immunoblot. To be noted: both partners purified.

B1: STREP-HSF1 (natural protein, human, UniProt Q00613 1-529, looked up)
chain: MDLPVGPGAAGPSNVPAFLTKLWTLVSDPDTDALICWSPSGNSFHVFDQGQFAKEVLPKYFKHNNMASFVRQLNMYGFRKVVHIEQGGLVKPERDDTEFQHPCFLRGQEQLLENIKRKVTSVSTLKSEDIKIRQDSVTKLLTDVQLMKGKQECMDSKLLAMKHENEALWREVASLRQKHAQQQKVVNKLIQFLISLVQSNRILGVKRKIPLMLNDSGSAHSMPKYSRQFSLEHVHGSGPYSAPSPAYSSSSLYAPDAVASSGPIISDITELAPASPMASPGGSIDERPLSSSPLVRVKEEPPSPPQSPRVEEASPGRPSSVDTLLSPTALIDSILRESEPAPASVTALTDARGHTDTEGRPPSPPPTSTPEKCLSVACLDKNELSDHLDAMDSNLDNLQTMLSSHGFSVDTSALLDLFSPSVTVPDMSLPDLDSSLASIQELLSPQEPPRPPEAENSSPDSGKQLVHYTAQPLFLLDPGSVDTGSNDLPVLFELGEGSYFSEGDGFAEDPTISLLTGSEPPKAKDPTVS
notes: HSF1, human, codon-optimized for bacterial expression; also called STREP-tagged HSF1; source: E. coli BL21 (DE3), purified (StrepTrap column)
For the molecule B1, the binding result is on record as “binds”.
